T1: FLAG-CAL1 (Drosophila, UniProt Q9VEN2 1-979)
T1 construct: Chromosome Alignment 1 (CAL1), Drosophila; The results say the fusion is expressed under the endogenous CAL1 promoter, the methods say under the pCopia promoter; also called FLAG-tagged CAL1; Chromosome Alignment 1; source: Drosophila S2 cells stably expressing FLAG-CAL1, in chromatin-free extract / nuclear (chromatin) extract; not shown: FLAG, N-terminal, kept
T1 sequence (looked up): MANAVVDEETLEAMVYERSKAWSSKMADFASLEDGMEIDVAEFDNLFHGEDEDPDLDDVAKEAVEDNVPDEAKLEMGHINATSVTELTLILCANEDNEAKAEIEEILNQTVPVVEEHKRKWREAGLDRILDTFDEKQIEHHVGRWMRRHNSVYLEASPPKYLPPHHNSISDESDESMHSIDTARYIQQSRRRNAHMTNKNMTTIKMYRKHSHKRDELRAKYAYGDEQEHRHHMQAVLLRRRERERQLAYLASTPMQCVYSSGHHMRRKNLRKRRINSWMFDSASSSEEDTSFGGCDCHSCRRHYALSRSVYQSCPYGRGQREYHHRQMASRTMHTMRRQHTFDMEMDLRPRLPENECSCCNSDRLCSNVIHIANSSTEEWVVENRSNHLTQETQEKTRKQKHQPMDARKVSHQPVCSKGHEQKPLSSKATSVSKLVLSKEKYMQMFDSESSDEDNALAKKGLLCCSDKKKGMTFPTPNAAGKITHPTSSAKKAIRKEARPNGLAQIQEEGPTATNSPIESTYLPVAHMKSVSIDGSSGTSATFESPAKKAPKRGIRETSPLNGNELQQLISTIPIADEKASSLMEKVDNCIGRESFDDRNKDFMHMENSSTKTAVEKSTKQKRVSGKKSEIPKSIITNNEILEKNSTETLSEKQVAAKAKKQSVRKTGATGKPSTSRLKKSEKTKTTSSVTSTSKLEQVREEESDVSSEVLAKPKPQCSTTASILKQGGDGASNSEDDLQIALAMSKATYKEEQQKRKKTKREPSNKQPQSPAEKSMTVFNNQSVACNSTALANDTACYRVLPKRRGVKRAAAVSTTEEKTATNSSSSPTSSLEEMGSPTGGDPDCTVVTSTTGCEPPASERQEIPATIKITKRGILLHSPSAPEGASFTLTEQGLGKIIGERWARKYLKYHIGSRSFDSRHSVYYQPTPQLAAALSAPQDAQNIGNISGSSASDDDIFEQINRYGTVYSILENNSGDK

B1: Modulo (natural protein, Drosophila (endogenous in S2 cells), UniProt P13469 1-542, looked up)
chain: MAQKKAVTVKGKKATNGEEKPLAKRVTKSTKVQEEETVVPQSPSKKSRKQPVKEVPQFSEEDESDVEEQNDEQPGDDSDFETEEAAGLIDDEAEEDEEYNSDDEEDDDDDELEPGEVSKSEGADEVDESDDDEEAPVEKPVSKKSEKANSEKSEENRGIPKVKVGKIPLGTPKNQIVFVTNLPNEYLHKDLVALFAKFGRLSALQRFTNLNGNKSVLIAFDTSTGAEAVLQAKPKALTLGDNVLSVSQPRNKEENNERTVVVGLIGPNITKDDLKTFFEKVAPVEAVTISSNRLMPRAFVRLASVDDIPKALKLHSTELFSRFITVRRISQESISRTSELTLVVENVGKHESYSSDALEKIFKKFGDVEEIDVVCSKAVLAFVTFKQSDAATKALAQLDGKTVNKFEWKLHRFERSTSGRAILVTNLTSDATEADLRKVFNDSGEIESIIMLGQKAVVKFKDDEGFCKSFLANESIVNNAPIFIEPNSLLKHRLLKKRLAIGQTRAPRKFQKDTKPNFGKKPFNKRPAQENGGKSFVKRARF
notes: Modulo, Drosophila nucleolar protein, endogenous in S2 cells; runs as a 75 KDa protein; also called nucleolar protein Modulo; Drosophila nucleolin homolog; source: endogenous, Drosophila S2 cells, in chromatin-free extract / nuclear (chromatin) extract

Tests used:
FLAG-CAL1 = target: T1, FLAG-CAL1; experiment: co-IP; anti-FLAG M2 agarose, 2 h at 4°C, extracts of nuclei from S2 cells stably expressing FLAG-CAL1 and from untagged S2 cells; Western blot with anti-Modulo; quantified with Image J; conditions: partners not purified
Modulo = target: B1; experiment: co-IP; anti-Modulo antibody coupled to Dynabead Protein-A, 2 h at 4°C, extracts of nuclei from S2 cells; mock IP without antibody; Western blot with anti-CAL1; conditions: partners not purified

Binder	fold enrichment in the FLAG-CAL1 IP over the IP from untagged S2 cells (FLAG-CAL1) [fold]	fold enrichment in the anti-Modulo IP over the mock IP (Modulo) [fold]
B1	5	–
CAL1 (natural protein, Drosophila (endogenous in S2 cells), UniProt Q9VEN2 1-979, looked up, Chromosome Alignment 1 (CAL1), Drosophila, endogenous in untransfected S2 cells; runs approximately as a 150 KDa protein; also called Chromosome Alignment 1; source: endogenous, Drosophila S2 cells, in nuclear (chromatin) extract) MANAVVDEETLEAMVYERSKAWSSKMADFASLEDGMEIDVAEFDNLFHGEDEDPDLDDVAKEAVEDNVPDEAKLEMGHINATSVTELTLILCANEDNEAKAEIEEILNQTVPVVEEHKRKWREAGLDRILDTFDEKQIEHHVGRWMRRHNSVYLEASPPKYLPPHHNSISDESDESMHSIDTARYIQQSRRRNAHMTNKNMTTIKMYRKHSHKRDELRAKYAYGDEQEHRHHMQAVLLRRRERERQLAYLASTPMQCVYSSGHHMRRKNLRKRRINSWMFDSASSSEEDTSFGGCDCHSCRRHYALSRSVYQSCPYGRGQREYHHRQMASRTMHTMRRQHTFDMEMDLRPRLPENECSCCNSDRLCSNVIHIANSSTEEWVVENRSNHLTQETQEKTRKQKHQPMDARKVSHQPVCSKGHEQKPLSSKATSVSKLVLSKEKYMQMFDSESSDEDNALAKKGLLCCSDKKKGMTFPTPNAAGKITHPTSSAKKAIRKEARPNGLAQIQEEGPTATNSPIESTYLPVAHMKSVSIDGSSGTSATFESPAKKAPKRGIRETSPLNGNELQQLISTIPIADEKASSLMEKVDNCIGRESFDDRNKDFMHMENSSTKTAVEKSTKQKRVSGKKSEIPKSIITNNEILEKNSTETLSEKQVAAKAKKQSVRKTGATGKPSTSRLKKSEKTKTTSSVTSTSKLEQVREEESDVSSEVLAKPKPQCSTTASILKQGGDGASNSEDDLQIALAMSKATYKEEQQKRKKTKREPSNKQPQSPAEKSMTVFNNQSVACNSTALANDTACYRVLPKRRGVKRAAAVSTTEEKTATNSSSSPTSSLEEMGSPTGGDPDCTVVTSTTGCEPPASERQEIPATIKITKRGILLHSPSAPEGASFTLTEQGLGKIIGERWARKYLKYHIGSRSFDSRHSVYYQPTPQLAAALSAPQDAQNIGNISGSSASDDDIFEQINRYGTVYSILENNSGDK	–	8

From publication PMC3448598, “A Role for the CAL1-Partner Modulo in Centromere Integrity and Accurate Chromosome Segregation in Drosophila” (PLoS ONE, 2012)
